Target: T1, hemagglutinin (HA) of influenza A/H1N1, in viral protein preparations (Influenza A virus (H1N1); …, UniProt C3W5X2)
T1 construct: source: viral protein preparations from A/H1N1
Assay: ELISA

B1: VHH 2-C10 (VHH)
VHH: QVQLQESGGGLVQAGGSLRLSCVASGRTFSSYSMAWFRQAPGKEREFVASISWSDINGYYPDSVKGRFTISRDNAKNTVYLQMNSLKPEDTAVYYCAARLGLSNYHYHRVSDYDVWGQGTQVTVSS
notes: also called native VHH 2-C10; source: E. coli TOP10F', culture medium, purified (Ni-NTA agarose)
binding result: binds
